# Measured values published in US20100092461A1, “Remedy For Chemotherapy-Resistant Cancer Containing HLA Class I-Recognizing Antibody as the Active Ingredient and Use of the Same” (CHUGAI SEIYAKU KABUSHIKI KAISHA, priority 2007, published 2010).
# How the values were obtained:
# [1] = test system: BLTH; experiment: Cytotoxic activity, cell growth test using WST-8, BLTH; format: cell-based; conditions: FIG. 6
# Protocol: (§1) Acute myeloid leukemia cell line HL60 (American Type Culture Collection, Manassas, Va., USA) and Burkitt's lymphoma cell line BLTH (kindly gifted from Prof Hirose at The University of Tokushima, Br. J. Cancer (1987) 56: 413-417) were cultured in the presence of vincristine to obtain vincristine-resistant cell lines HL60-R and BLTH-R.
# (§2) First, these tumor cells were used to examine their susceptibility to C3B3-DB. These tumor cells were cultured in the presence of various concentrations of C3B3-DB and then antitumor activity (cytotoxic activity) of C3B3-DB was measured by cell growth tests using WST-8 (Kishida Chemicals, Osaka).
# (§3) In addition, whether or not drug resistance in chemotherapeutic agent-resistant tumor cells can be overcome (improved) was examined by culturing these cells in the presence or absence of C3B3-DB (0.1 μg/mL) for six hours and then adding vincristine.
# [2] = test system: HL60; experiment: Cytotoxic activity, cell growth test using WST-8, HL60; format: cell-based; conditions: FIG. 6
# Protocol: as §1, §2, §3
# [3] = test system: parent cell lines; experiment: Daunorubicin uptake into cells (accumulation and efflux phase, flow cytometry), parent cell lines; format: cell-based; conditions: FIG. 8
# Protocol: (§4) To elucidate the mechanism of overcoming drug (chemotherapeutic agent)-resistance using C3B3-DB, MDR1 expression on the cell surface was examined after treating these cells for six hours with C3B3-DB (0.1 μg/mL). […] Furthermore, treatment of these cells with C3B3-DB was followed by culturing these cells in the presence of daunorubicin (0.1 μg/mL, Meiji Seika, Tokyo) and the amount of daunorubicin uptake into cells were compared.
# (§5) Specifically, uptake of the pharmaceutical agent into the cells (accumulation phase) was evaluated by culturing the cells for two hours in the presence or absence of C3B3-DB, then adding daunorubicin and culturing the cells for 30 minutes, washing the cells, and then measuring the PE intensity by flow cytometry. The cells were cultured for another 30 minutes to evaluate persistence of the pharmaceutical agent in the cells (efflux phase) in a same manner using flow cytometry.
# [4] = test system: vincristine-resistant cell lines; experiment: Daunorubicin uptake into cells (accumulation and efflux phase, flow cytometry), vincristine-resistant cell lines; format: cell-based; conditions: FIG. 8
# Protocol: as §4, §5
# [5] = test system: HL60-R; experiment: Cytotoxic activity, cell growth test using WST-8, HL60-R; format: cell-based
# Protocol: as §1, §2, §3
# [6] = test system: activated lymphocytes; conditions: cited from earlier work
# [7] = used alone, compared with 2D7 diabody used alone, Patent Document 5; cited from earlier work
# [8] = test system: MDR1; experiment: MDR1 expression on the cell surface after C3B3-DB treatment (flow cytometry); format: cell-based; conditions: six hours with C3B3-DB 0.1 μg/mL, chemotherapeutic agent-resistant cell lines, FIG. 7
# Text: MDR1 expression on the cell surface was examined by flow cytometry using anti-MDR1 antibody (UIC-2, Chemicon, Temecula, Calif., USA) and FITC-labeled goat anti-mouse IgG antibody (Biosource, Camarillo, Calif., USA). Mouse IgG (BD Biosciences, San Jose, Calif., USA) was used for the control antibody.
# as §4
# [9] = test system: human myeloma cells; conditions: various human myeloma cell lines; cited from earlier work
# [10] = test system: BLTH-R; experiment: Cytotoxic activity, cell growth test using WST-8, BLTH-R; format: cell-based
# Protocol: as §1, §2, §3
# [11] = test system: multiple myeloma model mice generated by transplanting human myeloma cell line; conditions: cited from earlier work
# [12] = C3B3-DB two hours then daunorubicin
molecule,measurement,setting,value
"CC[C@]1(O)C[C@H]2CN(CCc3c([nH]c4ccccc34)[C@@](C(=O)OC)(c3cc4c(cc3OC)N(C=O)[C@H]3[C@@](O)(C(=O)OC)[C@H](OC(C)=O)[C@]5(CC)C=CCN6CC[C@]43[C@@H]65)C2)C1 [vincristine, reference compound]",cell injury by vincristine,[1]; with or without C3B3-DB pre-treatment,concentration-dependent cell injury
same,cell injury by vincristine,"[2]; HL60, with or without C3B3-DB pre-treatment",concentration-dependent cell injury
"COc1cccc2c1C(=O)c1c(O)c3c(c(O)c1C2=O)C[C@@](O)(C(C)=O)C[C@@H]3O[C@H]1C[C@H](N)[C@H](O)[C@H](C)O1 [daunorubicin, reference compound]",amount of daunorubicin uptake into cells,"[3]; daunorubicin 0.1 μg/mL, accumulation and efflux phase",a certain amount of daunorubicin was taken up
same,amount of daunorubicin uptake into cells,"[4]; daunorubicin 0.1 μg/mL, both phases",significantly decreased
"C3B3-DB: C3B3 diabody, a low-molecular-weight antibody of the C3B3 antibody recognizing HLA class I (protein, left off: small tags and cut ends) scFv: EVKLVESEGGLVQPGSSMKLSCTASGFTFSDHYMAWVRQVPEKGLEWVADINYDGSRTYYLDSLKSRFIISRDNGKNILYLQMSSLKSEDTATYYCARDRVRSSYYSNLFAMDYWGQGISVTVSSGGGGSDIQMTQTTSSLSASLGDRVTISCRASQDIANYLNWYQQKPDGTVKLLIYYTSRLHSGVPSRFSGSGSGTDYSLTISNLEPEDIATYYCQQYSKLPYTFGSGTKLEIK",cytotoxic activity (survival rate of the cells),"[5]; C3B3-DB alone, 24 hours, HL60-R compared with parent HL60, FIG. 5",cell injury was induced at lower concentrations
same,cytotoxic activity enhancement of vincristine due to pre-treatment,"[5]; HL60-R, C3B3-DB 0.1 μg/mL for six hours then vincristine, FIG. 6",enhanced
same,cell death-inducing activity,[6],strong cell death-inducing activity
same,pre-treatment effect on amount of daunorubicin uptake,[3]; [12],not observed
same,antitumor effects,[7],stronger antitumor effects than 2D7 diabody
same,cytotoxic activity enhancement of vincristine due to pre-treatment,[1]; C3B3-DB 0.1 μg/mL for six hours then vincristine,not observed
same,cytotoxic activity enhancement of vincristine due to pre-treatment,"[2]; HL60, C3B3-DB 0.1 μg/mL for six hours then vincristine",not observed
same,MDR1 expression on the cell surface,[8],decrease in some cells
same,cell death-inducing activity,[9],strong cell death-inducing activity
same,pre-treatment effect on amount of daunorubicin uptake,[4]; [12],increased the amount of uptake
same,cytotoxic activity enhancement of vincristine due to pre-treatment,"[10]; BLTH-R, C3B3-DB 0.1 μg/mL for six hours then vincristine, FIG. 6",enhanced
same,cytotoxic activity (survival rate of the cells),"[10]; C3B3-DB alone, 24 hours, BLTH-R compared with parent BLTH, FIG. 5",cell injury was induced at lower concentrations
same,survival benefit,[11],significant survival benefit
